Results as given in patent US20090186415A1, “METHOD FOR PRODUCTION OF CYTOCHROME P450 WITH N-TERMINAL TRUNCATED P450 REDUCTASE” (priority 2006, published 2009).

T1: human CYP1B1 (Homo sapiens, UniProt Q16678)
T1 construct: made in house; host or cells: Saccharomyces cerevisiae JL20 / W303B and derived strains; microsomes
T1 sequence (Q16678 with tags, fused parts or gaps): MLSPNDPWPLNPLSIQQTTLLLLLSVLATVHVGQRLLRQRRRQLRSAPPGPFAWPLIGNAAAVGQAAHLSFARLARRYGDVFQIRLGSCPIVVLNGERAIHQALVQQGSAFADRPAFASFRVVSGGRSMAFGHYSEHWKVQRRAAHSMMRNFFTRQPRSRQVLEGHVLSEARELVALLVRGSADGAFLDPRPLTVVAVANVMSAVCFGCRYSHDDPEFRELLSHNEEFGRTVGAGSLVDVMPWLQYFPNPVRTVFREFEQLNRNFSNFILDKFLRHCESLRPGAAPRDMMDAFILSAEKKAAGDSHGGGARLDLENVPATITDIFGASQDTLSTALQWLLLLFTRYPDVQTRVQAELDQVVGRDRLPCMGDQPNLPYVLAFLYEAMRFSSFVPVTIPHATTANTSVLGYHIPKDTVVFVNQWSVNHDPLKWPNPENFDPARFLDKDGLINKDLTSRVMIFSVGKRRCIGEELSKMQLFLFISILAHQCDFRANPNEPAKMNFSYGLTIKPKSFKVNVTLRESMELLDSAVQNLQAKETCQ

B1: ΔN24hRD-cmyc: human P450 reductase lacking N-terminal 24 amino acids, with C-terminal c-myc epitope tag (SEQ ID NO: 27) (protein)
chain: MTDMILFSLIVGLLTYWFLFRKKKEEVPEFTKIQTLTSSVRESSFVEKMKKTGRNIIVFYGSQTGTAEEFANRLSKDAHRYGMRGMSADPEEYDLADLSSLPEIDNALVVFCMATYGEGDPTDNAQDFYDWLQETDVDLSGVKFAVFGLGNKTYEHFNAMGKYVDKRLEQLGAQRIFELGLGDDDGNLEEDFITWREQFWPAVCEHFGVEATGEESSIRQYELVVHTDIDAAKVYMGEMGRLKSYENQKPPFDAKNPFLAAVTTNRKLNQGTERHLMHLELDISDSKIRYESGDHVAVYPANDSALVNQLGKILGADLDVVMSLNNLDEESNKKHPFPCPTSYRTALTYYLDITNPPRTNVLYELAQYASEPSEQELLRKMASSSGEGKELYLSWVVEARRHILAILQDCPSLRPPIDHLCELLPRLQARYYSIASSSKVHPNSVHICAVVVEYETKAGRINKGVATNWLRAKEPVGENGGRALVPMFVRKSQLRLPFKATTPVIMVGPGTGWHPFIGFIQERAWLRQQGKEVGETLLYYGCRRSDEDYLYREELAQFHRDGALTQLNVAFSREQSHKVYVQHLLKQDREHLWKLIEGGAHIYVCGDARNMARDVQNTFYDIVAELGAMEHAQAVDYIKKLMTKGRYSLDVWSSSEQKLISEEDLNGSRL
modifications: C-terminal c-myc tag; /note = delta-N24hRD-cmyc tag human P450 reductase
B2: ΔN24hRD: human P450 reductase variant lacking the charged N-terminal 24 amino acids (SEQ ID NO: 26) (protein)
chain: MTDMILFSLIVGLLTYWFLFRKKKEEVPEFTKIQTLTSSVRESSFVEKMKKTGRNIIVFYGSQTGTAEEFANRLSKDAHRYGMRGMSADPEEYDLADLSSLPEIDNALVVFCMATYGEGDPTDNAQDFYDWLQETDVDLSGVKFAVFGLGNKTYEHFNAMGKYVDKRLEQLGAQRIFELGLGDDDGNLEEDFITWREQFWPAVCEHFGVEATGEESSIRQYELVVHTDIDAAKVYMGEMGRLKSYENQKPPFDAKNPFLAAVTTNRKLNQGTERHLMHLELDISDSKIRYESGDHVAVYPANDSALVNQLGKILGADLDVVMSLNNLDEESNKKHPFPCPTSYRTALTYYLDITNPPRTNVLYELAQYASEPSEQELLRKMASSSGEGKELYLSWVVEARRHILAILQDCPSLRPPIDHLCELLPRLQARYYSIASSSKVHPNSVHICAVVVEYETKAGRINKGVATNWLRAKEPVGENGGRALVPMFVRKSQLRLPFKATTPVIMVGPGTGWHPFIGFIQERAWLRQQGKEVGETLLYYGCRRSDEDYLYREELAQFHRDGALTQLNVAFSREQSHKVYVQHLLKQDREHLWKLIEGGAHIYVCGDARNMARDVQNTFYDIVAELGAMEHAQAVDYIKKLMTKGRYSLDVWS
modifications: /note = delta-N24hRD human P450 reductase
B3: 675 bp GAL1p: truncated 675 bp yeast GAL1 promoter (SEQ ID No. 2) (nucleic acid)
DNA: CTTGAATTTTCAAAAATTCTTACTTTTTTTTTGGATGGACGCAAAGAAGTTTAATAATCATATTACATGGCATTACCACCATATACATATCCATATACATATCCATATCTAATCTTACTTATATGTTGTGGAAATGTAAAGAGCCCCATTATCTTAGCCTAAAAAAACCTTCTCTTTGGAACTTTCAGTAATACGCTTAACTGCTCATTGCTATATTGAAGTACGGATTAGAAGCCGCCGAGCGGGTGACAGCCCTCCGAAGGAAGACTCTCCTCCGTGCGTCCTCGTCTTCACCGGTCGCGTTCCTGAAACGCAGATGTGCCTCGCGCCGCACTGCTCCGAACAATAAAGATTCTACAATACTAGCTTTTATGGTTATGAAGAGGAAAAATTGGCAGTAACCTGGCCCCACAAACCTTCAAATGAACGAATCAAATTAACAACCATAGGATGATAATGCGATTAGTTTTTTAGCCTTATTTCTGGGGTAATTAATCAGCGAAGCGATGATTTTTGATCTATTAACAGATATATAAATGCAAAAACTGCATAACCACTTTAACTAATACTTTCAACATTTTCGGTTTGTATTACTTCTTATTCAAATGTAATAAAAGTATCAACAAAAAATTGTTAATATACCTCTATACTTTAACGTCAAGGAGAAAAAACCCC
modifications: /note = Positive strand of the 675 bp GAL1 promoter

What was measured:
[1] = test system: human NADPH P450 reductase; assay: MTT-based cytochrome P450 reductase assay, hRD variants in yeast microsomes and cytosolic fractions; type: biochemical; settings: for microsome bound reductase activity: microsomes; for microsome bound reductase activity / cytosolic reductase activity: LEU2 locus of W303B; for cytosolic reductase activity: soluble cytosolic fraction
Method: Microsomes from the different yeast strains were prepared as described in Example 1.15. About 100 μg of microsomes, as measured by the Bio-Rad Bradford assay, were used and the increase in MTT reductase activity was followed over a time period of 400 seconds.
The different yeast strains were grown up in YPGE medium as described in Example 1.15. The cells were harvested and centrifuged to a pellet. 10% of cell pellets were re-suspended in 1 ml of buffer B (10 mM Tris-Cl pH7.5, 2 M Sorbitol, 0.1 mM EDTA pH8.0, 1 mM Pefabloc, 0.1 mM DTT) and re-suspended cells were treated with lyticase (3-5 units/O.D. of cells; 2200 units/mg; Sigma) for about an hour. The yeast cell wall was enzymatically removed using lyticase, the pellets were centrifuged and washed twice with ice cold PBS, finally re-suspended in 1 ml PBS. About 0.5 ml of glass beads were added to the suspension and the cells were vortexed three times with a 5 min interval on ice after each vortexing. The cells lysates were directly used for the MTT-based reductase assay. Equal amount of cells lysates (100 μg, as measured by the Bio-Rad Bradford assay) were used and the increase in MTT reductase activity was followed, as above, over a time period of 400 seconds.
The enzyme NADPH-cytochrome P450 reductase mediates the transfer of electrons from NADPH to cytochrome P450, other microsomal proteins and cytochrome c. It also catalyzes the reduction of many drugs and other compounds such as potassium ferricyanide, 2,6-dichloroindopheonl, 1,1-diphenyl-2-picrylhydrazyl (DPPH), and mitomycin c. Tetrazolium salts are used extensively in cell proliferation and cytotoxicity assays, enzyme assays, histochemical procedures and bacteriological screening. […] The compound 3-(4,5-dimethylthiazol-2-yl)-2,5-diphenyltetrazolium bromide (MTT) is a monotetrazolium salt. The reduction of MTT is one of the most frequently used methods for measuring cell proliferation and cytotoxiciy. Reduction of MTT by P450 reductase has been assessed as a method for monitoring yeast produced recombinant P450 reductase activity and the protocol was developed on the procedure published by Yim S-K, et al (Yim S-K., Y. C.-H. Ahn T., Hung H—C and Pan J-G. A continuous Spectrophotometric assay for NADPH-cytochrome P450 reductase activity using 3-(4,5 Dimethylthiazol-2-yl)-2,5-diphenyltetrazolium Bromide. Journal of Biology and Molecular Biology 38: 366-369, 2005). The principal advantage of this substance is that the reduction of MTT can be assayed directly in the reaction medium by a continuous spectrophotometirc method. The electrons released from NADPH by P450 reductase are transferred to MTT, and then the amounts of reduced MTT is assessed spectrophotometrically by measuring the increase in A610 values that is due to the formation of blue formazan. The extinction coefficient of MTT is 11.3 mM^−1 cm^−1. This method offers the advantages of short analysis time with the use of a relatively cheap commercial substrate. The classical assay uses recombinant cytochrome c as a substrate.
Disposable cuvettes were used for this experiment. 850 μl of potassium phosphate buffer was added to a cuvette. […] The cuvette was quickly placed into the spectrophotometer together with the blank cuvette and its contents (that contained all components as in the other test cuvette but not the microsomes or cell supernatant) and the increase in the values at 610 nm was measured for a time period of 400 seconds. […]

human CYP1B1 = biological target: T1, human CYP1B1; assay: Determination of P450 amounts via CO-difference spectra (CYP1B1 in yeast microsomes); settings: strains JL20 and W303B with only endogenous yeast P450 reductase, average of 3 observations
Method: Determination of P450 amounts via CO-difference spectra: Difference spectra of microsomal preparations were measured in a spectrophotometer (Lambda 16, Perkin Elmer) using plastic disposable cuvettes. 850 μl of a solution containing 100 mM potassium phosphate and 20% glycerol (pH7.5) was added to the cuvette, and left for one minute. Then a ‘few grains’ of sodium hydrosulfite was added, mixed gently to prevent any bubble forming in the cuvette and left for another minute. 150 μl of mirosomes were added into the cuvette and the whole suspension was mixed gently. Two cuvettes (one containing sodium hydrosulphite without microsome and the other with microsome) were prepared and a baseline of light absorption of the buffer and microsome mixture was recorded in the dual-beam spectrophotometer from 400 nm to 500 nm. Carbon monoxide was bubbled slowly into one sample cuvette for about one minute, 1 bubble/second. Light absorption was recorded again from 400 nm to 500 nm. The concentration of cytochrome P450 in the cuvette was calculated from the absorption change at 450 nm relative to the absorbance change at 490 nm, using the formula below: […]

Molecule	P450 reductase activity (MTT reduction) ([1]; microsomal and soluble (cytosolic) fractions, hRD variants in W303B)	microsome bound reductase activity [1]	cytosolic reductase activity [1]	Expression of CYP1B1 (amounts of P450 produced) from GAL promoter variants (human CYP1B1)	Expression of CYP1B1 (amounts of P450 produced) from GAL promoter variants (human CYP1B1; listed as 675 bp GAL1 promoter)
B1	much more potent in reductase activity than ΔN24hRD	superior in its reductase activity than the wild type full-length protein	also higher		
B2		minimal	most of the activity of ΔN24hRD exists in the soluble cytosolic part of the cell		
B3				the best	the best expression
